# B1: Akkermansia muciniphila-derived threonyl-tRNA synthetase (TARS) (protein)
# chain: MSEHKERKTLEERQQMSDLERLRHSCAHVLATAICRLWPDAQLAGGPAVDNGFYYDVELDHRISTEDFERIEEEMKKVVKENQVFQKEVISRADAMKMAESGELGALGPRSEPSRFKIDLLNDIPEDEEISLYRNGDFTDLCAGPHVGRTGNCKAFKIMSVASAFYKGDKNRPMLQRIYGTCFPNRTQLDEHLERLEEARRRDHRKLGRELGLFCIDESVGQGLILWKPKGALIRRSLQDFITEELDKLGYSQVYTPNIGKLDLYRTSGHFPYYQESQYAPIPERDAMEKLSQEGASCAELFNGLATGTIEGYMLKPMNCPHHIKIYANDAHSYRDLPVRLAEFGTVYRWEQSGELGGMTRVRGFTQDDAHIFCTPDQLAGEIRQCLGIVKTIFGTLGMTDYRVRLSMRDPESDKYVGSPENWDKAEQALREAAEWLGADYSEEAGEAAFYGPKIDFIVRDAIGREWQLGTVQVDYNLPERFDLHYTGADNKPHRPVMVHRAPFGSMERFTGLLIEHFEGKFPTWLSPEQVRVLPISDKVTDVAAAHRTALAARGVRVTVDETPDKIGAKIRNARLDRVPYMLVLGQREAEDGTVSVRHRDKGDLGAMPFEQFADLVAREIAERHISPVI
# modifications: Akkermansia muciniphila TARS
# Assays:
# [1] = tested on: mouse model of dextran sulfate sodium (DSS)-induced colitis; experiment: DSS-induced colitis (inflammatory bowel disease) mouse model, intraperitoneal administration; type: in vivo; details: for distribution of B cells in the colon: normal mice
# Procedure: We evaluated the anti-inflammatory function of AmTARS in a mouse model of dextran sulfate sodium (DSS)-induced colitis. First, we assessed dose-dependent responses (i.e., changes in body weight and colon length) to intraperitoneal (i.p.) administration of AmTARS (0.05-0.4 mg/kg) once every other day for 10 days (FIG. 10A).
# The disease activity score was calculated by adding up scores ranging from 0 to 4 points for each item of bloody stool, diarrhea, and weight loss, and the epithelial damage score was calculated by assigning 0 to 4 points according to the degree of colon tissue damage.
# Next, to measure IgA, mouse feces were collected and diluted in PBS containing a protein inhibitor, and then a supernatant with impurities removed was obtained, and 100 μL was placed in each well of a 96-well plate to perform protein coating at 4° C. for 2 h. The plate was washed three times with a washing solution (50 mM Tris, 0.2% in PBS) and then incubated with 100 μL of blocking solution at room temperature for 1-2 h, followed by washing. HRP conjugated IgA antibody (1:30000) was added and then incubated at room temperature for 1 h, followed by washing. Thereafter, 100 μL of a substrate solution was added, followed by incubation for 30 min, and then 50 μL of a stop solution was added, followed by measurement at 405-450 nm by an ELISA reader. […]
# [2] = tested on: mouse macrophage Raw264.7; experiment: Phosphorylation of signal transducers in LPS-treated Raw264.7; type: cell-based; details: Raw264.7, LPS, 0.5 to 3 hours
# Procedure: To determine which signaling pathway was involved in the anti-inflammatory effect by the immune cytokine secretion regulation of […], an inflammatory environment was created through LPS treatment on mouse macrophage Raw264.7 as mouse-derived immune cells, and then changes in phosphorylation of signal transducers involved in the regulation of immune cytokine secretion according to the presence or absence of […] treatment and the elapsed time (0.5 to 3 hours) were investigated. Raw264.7 cells were cultured in DMEM (Hyclone) containing 10% FBS and antibiotics.
# [3] = tested on: BMDMs; experiment: Global gene expression profiling (RNA sequencing) of BMDMs; type: cell-based, mouse; details: GSEA (Enrichr)
# Procedure: (§1) (A-E) Global gene expression analysis. Total mRNA from BMDMs treated with either AmTARS (0.5 μM) or Pam3 (10 ng ml-1) for 1 or 3 h was isolated and analyzed by RNA sequencing (A). Principle components analysis (PCA) of the gene expression profiles for each sample (B). Hierarchical clustering of gene expression profiles from each sample identified cluster 3 and 4 (C). Gene set enrichment analysis (GSEA) of clusters 3 and 4 with respect to terms related to inflammation (D). […] (F) Overview of the experimental procedures for zebrafish. The yolk of Tg (NFκB:EGFP) transgenic zebrafish larvae (3 dpf) was injected with PBS or AmTARS. Injected larvae were treated at 3 and 5 dpf with 0.5% DSS for 24 h, with a washing period with fresh water for 24 h in between. Sample collection and analysis of Tg (NFκB:EGFP)-based EGFP intensity were conducted at 6 dpf. (G) Representative confocal images showing NF-κB signaling in the mid-distal intestines of PBS- or AmTARS-injected larvae with or without DSS treatment. White dashed lines denote the boundaries of the intestines (based on merged DIC bright field images). (H) Bar graph comparing the fluorescence intensity of the mid-distal intestines of PBS- or AmTARS-injected larvae treated (or not) with DSS (n=32 per PBS group and n=35 per DSS group). (I) Schematic model of the role of AmTARS in maintaining immune homeostasis via TLR2-mediated anti-inflammatory signaling pathways. Data shown in (A-C) are representative and repeated twice. Data shown in (H) are representative of three independent experiments, each similar results (mean±SEM). P-values were calculated by unpaired and two-tailed Student's t-test.
# We next performed global gene expression profiling of BMDMs treated with AmTARS or Pam3 for 1 or 3 h (FIG. 32A). […] Subsets of genes showing different expression patterns between AmTARS and Pam3 were classified into six clusters by hierarchical clustering analysis (FIGS. 33A and 33B). The gene expression pattern at 3 h was particularly different for clusters 3 and 4 (FIGS. 32C, 33A, and 33B). […]
# [4] = tested on: Tg (NFκB:EGFP) zebrafish transgenic line; experiment: NF-κB activity in DSS-treated Tg (NFκB:EGFP) zebrafish larvae; type: in vivo; details: yolk injection at 3 dpf, 0.5% DSS, analysis at 6 dpf
# Procedure: as §1, with “(I) Schematic model of the role of AmTARS in maintaining immune homeostasis via TLR2-mediated anti-inflammatory signaling pathways. Data shown in (A-C) are representative and repeated twice. Data shown in (H) are representative of three independent experiments, each similar results (mean±SEM).” left out, “t-test. […]” for “t-test.”
# [5] = tested on: human macrophages (THP1); experiment: ELISA of immune cytokine secretion in THP1 under normal conditions; type: cell-based; details: THP1, 0.1, 0.2, 0.5 μM, 24 h
# Procedure: Specifically, mouse bone marrow-derived macrophages (BMDMs) as mouse-derived immune cells were extracted from the mouse thighbone and shinbone, and then cultured in DMEM containing 10% fetal bovine serum (FBS) and antibiotics. Human macrophages (THP1) as human-derived immune cells were cultured in RPMI media containing 10% FBS and antibiotics.
# The cultured cells were treated with AmTARS at 0.1 μM, 0.2 μM, and 0.5 μM for 24 h to obtain cell cultures. For cell removal, the media were centrifuged at 500×g for 10 min to obtain supernatants, which were then analyzed using an ELISA set (mouse interleukin (IL)-6, mouse IL-10, mouse tumor necrosis factor (TNF)-α, human IL-6, human IL-10, human TNF-α; BD Biosciences) to investigate the secretion of mouse- and human-derived immune cytokines.
# [6] = DSS-induced colitis mice, i.p., AmTARS 0.2 mg/kg
# [7] = DSS-induced colitis mice, particularly proximal colon, versus control mice
# [8] = i.p. 0.05-0.4 mg/kg once every other day for 10 days
# [9] = inflammatory bowel disease mouse model
# [10] = normal mice (control of B cell-deficient experiment)
molecule,measurement,setting,value
B1,therapeutic effects on colitis pathology,[1]; AmTARS 0.2 mg kg-1 versus mIL-10 0.02 mg kg-1,comparable with those of IL-10
same,IL-10-positive macrophage (CD11b+F4/80+IL-10+) numbers within colonic cells,[1]; DSS-induced colitis mice,restored
same,IL-10 levels in serum,[1]; DSS-induced colitis mice,increased
same,body weight loss,[1]; [6],ameliorated
same,colon shortening / shortening of the intestine,[1]; [6],ameliorated
same,disease activity scores,[1]; [6],ameliorated
same,disruption of the epithelial lining,[1]; [7],significantly lower
same,epithelial damage score,[1]; [7],significantly lower
same,colitis-induced infiltration of inflammatory monocytes (CD11b+F4/80−),"[1]; colon cells, DSS-induced colitis mice",significantly suppressed
same,body weight loss,"[1]; i.p. 0.4 mg/kg, up to 7 days",significantly attenuated
same,"body weight loss, dose response",[1]; [8],attenuated body weight loss and colon shortening in a dose-dependent manner
same,"colon shortening, dose response",[1]; [8],attenuated body weight loss and colon shortening in a dose-dependent manner
same,secretion of the cytokine IL-10 in the mouse plasma,[1]; [9],increased the secretion
same,distribution of B cells in the colon,[1]; [9],increase in B cells
same,distribution of B cells in the colon,"[1]; inflammatory bowel disease mouse model, listed as TARS",significantly increased
same,amount of IgA increased due to an inflammatory response,"[1]; mouse feces, ELISA",reduced the amount of IgA
same,colon tissue damage due to inflammatory bowel disease,[1]; [10],alleviated
same,intestine length reduction due to inflammatory bowel disease,[1]; [10],alleviated
same,extracellular signal-regulated kinase (ERK),[2],not affected
same,phosphorylation of NF-kB,[2],distinctive differences in phosphorylation from a control from 2 h
same,phosphorylation of c-Jun N-terminal kinase (JNK),[2],affected through the regulation of phosphorylation from 30 min
same,phosphorylation of p38,[2],distinctive differences in phosphorylation from a control from 2 h
same,transcription factors associated with up-regulated genes,[3],up-regulation of the anti-inflammation-related transcription factor CREB
same,NF-κB activity in the distal intestine induced by repeated DSS treatment,[4],significantly dampened
same,secretion of IL-6,[5],not secreted
same,secretion of IL-10,[5],increased in a dose-dependent manner
same,secretion of TNF-α,[5],not secreted

# — patent US12636342B2, “TARS derived from Akkermansia muciniphila or fragment thereof, and use thereof” (KOREA RESEARCH INSTITUTE OF BIOSCIENCE AND BIOTECHNOLOGY, priority 2020, dated 2026)
